Laboratory results: paper PMC11098746 (2024)

The binders below were run against Circumsporozoite protein (CSP) (Plasmodium falciparum (isolate 3D7), UniProt Q7K740) (assay: AVEXIS screen signal:noise (double-corrected)).
Chain of Circumsporozoite protein (CSP) (Q7K740 19-374): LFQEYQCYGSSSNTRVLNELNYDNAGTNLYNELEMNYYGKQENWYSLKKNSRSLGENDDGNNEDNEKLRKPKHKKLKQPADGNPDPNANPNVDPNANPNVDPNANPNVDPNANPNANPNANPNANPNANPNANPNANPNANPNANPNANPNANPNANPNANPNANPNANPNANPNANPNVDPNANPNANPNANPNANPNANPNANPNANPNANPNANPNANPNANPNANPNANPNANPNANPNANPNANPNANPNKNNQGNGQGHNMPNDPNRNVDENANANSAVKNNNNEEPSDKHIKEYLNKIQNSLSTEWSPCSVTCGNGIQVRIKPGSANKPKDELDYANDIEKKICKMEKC

| Binder | binding score |
| --- | --- |
| ADP377 (protein, bait human Fc-tagged dimer) FSECNKCDEKKERGLPAGDVLEPVQKPHEGPGEMGKPVVIPKEDQEKMKEMFKINQFNLMASEMIALNRSLPDVRLEGCKTKVYPDNLPTTSVVIVFHNEAWSTLLRTVHSVINRSPRHMIEEIVLVDDASERDFLKRPLESYVKKLKVPVHVIRMEQRSGLIRARLKGAAVSKGQVITFLDAHCECTVGWLEPLLARIKHDRRTVVCPIIDVISDDTFEYMAGSDMTYGGFNWKLNFRWYPVPQREMDRRKGDRTLPVRTPTMAGGLFSIDRDYFQEIGTYDAGMDIWGGENLEISFRIWQCGGTLEIVTCSHVGHVFRKATPYTFPGGTGQIINKNNRRLAEVWMDEFKNFFYIISPGVTKVDYGDISSRVGLRHKLQCKPFSWYLENIYPDSQIPRHYFSLGEIRNVETNQCLDNMARKENEKVGIFNCHGMGGNQVFSYTANKEIRTDDLCLDVSKLNGPVTMLKCHHLKGNQLWEYDPVKLTLQHVNSNQCLDKATEEDSQVPSIRDCNGSRSQQWLLRNVTLPEIF | 0.747 |
| ADP155 (protein, bait human Fc-tagged dimer) MAPARLFALLLFFVGGVAESIRETEVIDPQDLLEGRYFSGALPDDEDVVGPGQESDDFELSGSGDLDDLEDSMIGPEVVHPLVPLDNHIPERAGSGSQVPTEPKKLEENEVIPKRISPVEESEDVSNKVSMSSTVQGSNIFERTEV | 0.582 |
| ADP115 (protein, bait human Fc-tagged dimer) MARPGQRWLGKWLVAMVVWALCRLATPLAKNLEPVSWSSLNPKFLSGKGLVIYPKIGDKLDIICPRAEAGRPYEYYKLYLVRPEQAAACSTVLDPNVLVTCNRPEQEIRFTIKFQEFSPNYMGLEFKKHHDYYITSTSNGSLEGLENREGGVCRTRTMKIIMKVGQDPNAVTPEQLTTSRPSKEADNTVKMATQAPGSRGSLGDSDGKHETVNQEEKSGPGASGGSSGDPDGFFNSKVAL | 1.09 |
| ADP317 (protein, bait human Fc-tagged dimer) MGSWALLWPPLLFTGLLVRPPGTMAQAQYCSVNKDIFEVEENTNVTEPLVDIHVPEGQEVTLGALSTPFAFRIQGNQLFLNVTPDYEEKSLLEAQLLCQSGGTLVTQLRVFVSVLDVNDNAPEFPFKTKEIRVEEDTKVNSTVIPETQLQAEDRDKDDILFYTLQEMTAGASDYFSLVSVNRPALRLDRPLDFYERPNMTFWLLVRDTPGENVEPSHTATATLVLNVVPADLRPPWFLPCTFSDGYVCIQAQYHGAVPTGHILPSPLVLRPGPIYAEDGDRGINQPIIYSIFRGNVNGTFIIHPDSGNLTVARSVPSPMTFLLLVKGQQADLARYSVTQVTVEAVAAAGSPPRFPQRLYRGTVARGAGAGVVVKDAAAPSQPLRIQAQDPEFSDLNSAITYRITNHSHFRMEGEVVLTTTTLAQAGAFYAEVEAHNTVTSGTATTVIEIQVSEQEPPSTDVPPSPEAGGTTGPWTSTTSEVPRPPEPSQGPSTTSSGGGTGPHPPSGTTLRPPTSSTPGGPPGAENSTSHQPATPGGDTAQTPKPGTSQPMPPGVGTSTSHQPATPSGGTAQTPEPGTSQPMPPSMGTSTSHQPATPGGGTAQTPEAGTSQPMPPGMGTSTSHQPTTPGGGTAQTPEPGTSQPMPLSKSTPSSGGGPSEDKRFSVVDMA | 2.47 |
| ADP146 (protein, bait human Fc-tagged dimer) MVAWRSAFLVCLAFSLATLVQRGSGDFDDFNLEDAVKETSSVKQPWDHTTTTTTNRPGTTRAPAKPPGSGLDLADALDDQDDGRRKPGIGGRERWNHVTTTTKRPVTTRAPANTLGNDFDLADALDDRNDRDDGRRKPIAGGGGFSDKDLEDIVGGGEYKPDKGKGDGRYGSNDDPGSGMVAEP | 1.36 |
| ADP379 (protein, bait human Fc-tagged dimer) PCPDRPASQRMWRIDYSAAVIYDFLAVDDINGDRIQDVLFLYKNTNSSNNFSRSCVDEGFSSPCTFAAAVSGANGSTLWERPVAQDVALVECAVPQPRGSEAPSACILVGRPSSFIAVNLFTGETLWNHSSSFSGNASILSPLLQVPDVDGDGAPDLLVLTQEREEVSGHLYSGSTGHQIGLRGSLGVDGESGFLLHVTRTGAHYILFPCASSLCGCSVKGLYEKVTGSGGPFKSDPHWESMLNATTRRMLSHSSGAVRYLMHVPGNAGADVLLVGSEAFVLLDGQELTPRWTPKAAHVLRKPIFGRYKPDTLAVAVENGTGTDRQILFLDLGTGAVLCSLALPSLPGGPLSASLPTADHRSAFFFWGLHELGSTSETETGEARHSLYMFHPTLPRVLLELANVSTHIVAFDAVLFEPSRHAAYILLTGPADSEAPGLVSVIKHKVRDLVPSSRVVRLGEGGPDSDQAIRDRFSRLRYQSEA | 2.44 |
| ADP151 (protein, bait human Fc-tagged dimer) MALTLSVLICLGLSVGPRTCVQAGTLPKPTLWAEPASVIARGKPVTLWCQGPLETEEYRLDKEGLPWARKRQNPLEPGAKAKFHIPSTVYDSAGRYRCYYETPAGWSEPSDPLELVATGFYAEPTLLALPSPVVASGGNVTLQCDTLDGLLTFVLVEEEQKLPRTLYSQKLPKGPSQALFPVGPVTPSCRWRFRCYYYYRKNPQVWSNPSDLLEILVPGVSRKPSLLIPQGSVVARGGSLTLQCRSDVGYDIFVLYKEGEHDLVQGSGQQPQAGLSQANFTLGPVSRSHGGQYRCYGAHNLSPRWSAPSDPLDILIAGLIPDIPALSVQPGPKVASGENVTLLCQSWHQIDTFFLTKEGAAHPPLCLKSKYQSYRHQAEFSMSPVTSAQGGTYRCYSAIRSYPYLLSSPSYPQELVVSGPSGDPSLSPTGSTPTPGPEDQPLTPTGLDPQSGLG | 1.33 |
| ADP325 (protein, bait human Fc-tagged dimer) MAAAQEADGARSAVVAAGGGSSGQVTSNGSIGRDPPAETQPQNPPAQPAPNAWQVIKGVLFRIFIIWAISSWFRRGPAPQDQAGPGGAPRVASRNLFPKDTLMNLHVYISEHEHFTDFNATSALFWEQHDLVYGDWTSGENSDGCYEHFAELDIPQSVQQNGSIYIHVYFTKSGFHPDPRQKALYRRLATVHMSRMINKYKRRRFQKTKNLLTGETEADPEMIKRAEDYGPVEVISHWHPNITINIVDDHTPWVKGSVPPPLDQYVKFDAVSGDYYPIIYFNDYWNLQKDYYPINESLASLPLRVSFCPLSLWRWQLYAAQSTKSPWNFLGDELYEQSDEEQDSVKVALLETNP | 1.73 |
| ADP284 (protein, bait human Fc-tagged dimer) SNAYSSPSVVLASYNHDGTRNILDDFREAYFWLRQNTDEHARVMSWWDYGYQIAGMANRTTLVDNNTWNNSHIALVGKAMSSNETAAYKIMRTLDVDYVLVIFGGVIGYSGDDINKFLWMVRIAEGEHPKDIRESDYFTPQGEFRVDKAGSPTLLNCLMYKMSYYRFGEMQLDFRTPPGFDRTRNAEIGNKDIKFKHLEEAFTSEHWLVRIYKVKAPDNRETLDHKPRVTNIFPKQKYLSKKTTKRKRGYIKNKLVFKKGKKISKKTV | 0.868 |
| ADP268 (protein, bait human Fc-tagged dimer) WEYGDLHLFGPNQRPAPCYDPCEAVLVESIPEGLDFPNASTGNPSTSQAWLGLLAGAHSSLDIASFYWTLTNNDTHTQEPSAQQGEEVLRQLQTLAPKGVNVRIAVSKPSGPQPQADLQALLQSGAQVRMVDMQKLTHGVLHTKFWVVDQTHFYLGSANMDWRSLTQVKELGVVMYNCSCLARDLTKIFEAYWFLGQAGSSIPSTWPRFYDTRYNQETPMEICLNGTPALAYLASAPPPLCPSGRTPDLKALLNVVDNARSFIYVAVMNYLPTLEFSHPHRFWPAIDDGLRRATYERGVKVRLLISCWGHSEPSMRAFLLSLAALRDNHTHSDIQVKLFVVPADEAQARIPYARVNHNKYMVTERATYIGTSNWSGNYFTETAGTSLLVTQNGRGGLRSQLEAIFLRDWDSPYSHDLDTSADSVGNACRLL | 0.585 |
| ADP320 (protein, bait human Fc-tagged dimer) MAAAPGLLVWLLVLRLPWRVPGQLDPSTGRRFSEHKLCADDECSMLMYRGEALEDFTGPDCRFVNFKKGDPVYVYYKLARGWPEVWAGSVGRTFGYFPKDLIQVVHEYTKEELQVPTDETDFVCFDGGRDDFHNYNVEELLGFLELYNSAATDSEKAVEKTLQDMEKNPELSKEREPEPEPVEANSEESDSVFSENTEDLQEQFTTQKHHSHANSQANHAQGEQASFESFEEMLQDKLKVPESENNKTSNSSQVSNEQDKIDAYKLLKKEMTLDLKTKFGSTADALVSDDETTRLVTSLEDDFDEELDTEYYAVGKEDEENQEDFDELPLLTFTDGEDMKTPAKSGVEKYPTDKEQNSNEEDKVQLTVPPGIKNDDKNILTTWGDTIFSIVTGGEETRDTMDLESSSSEEEKEDDDDALVPDSKQGKPQSATDYSDPDNVDDGLFIVDIPKTNNDKEVNAEHHIKGKGRGVQESKRGLVQDKTELEDENQEGMTVHSSVHSNNLNSMPAAEKGKDTLKSAYDDTENDLKGAAIHISKGMLHEEKPGEQILEGGSESESAQKAAGNQMNDRKIQQESLGSAPLMGDDHPNASRDSVEGDALVNGAKLHTLSVEHQREELKEELVLKTQNQPRFSSPDEIDLPRELEDEVPILGRNLPWQQERDVAATASKQMSEKIRLSEGEAKEDSLDEEFFHHKAMQGTEVGQTDQTDSTGGPAFLSKVEEDDYPSEELLEDENAINAKRSKEKNPGNQGRQFDVNLQVPDRAVLGTIHPDPEIEESKQETSMILDSEKTSETAAKGVNTGGREPNTMVEKERPLADKKAQRPFERSDFSDSIKIQTPELGEVFQNKDSDYLKNDNPEEHLKTSGLAGEPEGELSKEDHENTEKYMGTESQGSAAAEPEDDSFHWTPHTSVEPGHSDKREDLLIISSFFKEQQSLQRFQKYFNVHELEALLQEMSSKLKSAQQESLPYNMEKVLDKVFRASESQILSIAEKMLDTRVAENRDLGMNENNIFEEAAVLDDIQDLIYFVRYKHSTAEETATLVMAPPLEEGLGGAMEEMQPLHEDNFSREKTAELNVQVPEEPTHLDQRVIGDTHASEVSQKPNTEKDLDPGPVTTEDTPMDAIDANKQPETAAEEPASVTPLENAILLIYSFMFYLTKSLVATLPD | 1.04 |
| ADP261 (protein, bait human Fc-tagged dimer) KWETKNCSVSSTNANDITQSLTGKGNDSEEEMRFQEVFMEHMSNMEKRIQHILDMEANLMDTEHFQNFSMTTDQRFNDILLQLSTLFSSVQGHGNAIDEISKSLISLNTTLLDLQLNIENLNGKIQENTFKQQEEISKLEERVYNVSAEIMAMKEEQVHLEQEIKGEVKVLNNITNDLRLKDWEHSQTLRNITLIQGPPGPPGEKGDRGPTGESGPRGFPGPIGPPGLKGDRGAIGFPGSRGLPGYAGRPGNSGPKGQKGEKGSGNTLTPFTKVRLVGGSGPHEGRVEILHSGQWGTICDDRWEVRVGQVVCRSLGYPGVQAVHKAAHFGQGTGPIWLNEVFCFGRESSIEECKIRQWGTRACSHSEDAGVTCTL | 0.837 |
| ADP267 (protein, bait human Fc-tagged dimer) CKYKKSSGQLWSWMVCLAGLCAVCLLILSPFWGLILFSVSCFLMYTYLSGQELLPVDQKAVLVTGGDCGLGHALCKYLDELGFTVFAGVLNENGPGAEELRRTCSPRLSVLQMDITKPVQIKDAYSKVAAMLQDRGLWAVINNAGVLGFPTDGELLLMTDYKQCMAVNFFGTVEVTKTFLPLLRKSKGRLVNVSSMGGGAPMERLASYGSSKAAVTMFSSVMRLELSKWGIKVASIQPGGFLTNIAGTSDKWEKLEKDILDHLPAEVQEDYGQDYILAQRNFLLLINSLASKDFSPVLRDIQHAILAKSPFAYYTPGKGAYLWICLAHYLPIGIYDYFAKRHFGQDKPMPRALRMPNYKKKAT | 0.806 |
